The text below walks through data of patent US20170051040A1 (UNIVERSITE PIERRE ET MARIE CURIE PARIS 6, published 2017).

Non-standard residues stand in square brackets, D forms with d. No end group written: not given here.

The assay deals with CCR2 on mouse monocytes (mouse, UniProt P51683 1-373). Put plainly: cell-based or functional assay.
Chain of CCR2 on mouse monocytes (P51683 whole entry): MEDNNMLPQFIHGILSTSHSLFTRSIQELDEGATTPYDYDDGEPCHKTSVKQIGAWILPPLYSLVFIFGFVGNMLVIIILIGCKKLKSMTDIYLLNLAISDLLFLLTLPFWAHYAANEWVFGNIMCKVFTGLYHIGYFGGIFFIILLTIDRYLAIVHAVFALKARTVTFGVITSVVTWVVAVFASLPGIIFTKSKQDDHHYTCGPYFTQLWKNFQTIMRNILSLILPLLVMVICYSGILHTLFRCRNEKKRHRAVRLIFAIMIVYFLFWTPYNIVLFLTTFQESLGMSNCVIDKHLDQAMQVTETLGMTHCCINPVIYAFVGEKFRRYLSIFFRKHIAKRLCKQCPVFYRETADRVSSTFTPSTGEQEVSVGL

Regarding [dL]G[dT][dF][dL][dK][dC] [ECL1 (C) inverso], the “inhibition of migration of mouse monocytes and classical monocytes, IC50” value amounted to 2000 nM.
